{"source": "FireProtDB (doi:10.1038/nsb0196-54)", "conditions": "Escherichia coli; pH 7; Thermal; CD; Sodium phosphate 10 mM; NaCl 350 mM; whole UniProt chain shown"}
{"protein": "Regulatory protein rop wild type, P03051 (protein) MTKQEKTALNMARFIRSQTLTLLEKLNELDADEQADICESLHDHADELYRSCLARFGDDGENL", "values": [{"measurement": "Tm", "result": 68.7, "unit": "°C"}]}
